We go through 13 molecules from patent US20250270298A1.

Assay [1] concerns the target CjaD (Campylobacter jejuni). As to the kind of experiment: apparent affinity from ELISA dose response, purified VHH on immobilized CjaD, anti-FLAG detection. (In general: An ELISA detects its analyte on a solid surface through an enzyme-linked reagent.)
The target in assay [2] is CadF (Campylobacter jejuni). As to the kind of experiment: ELISA on directly coated CadF (200 ng/well), serial dilution of purified VHH, rabbit anti-VHH + anti-rabbit-HRP, OPD, absorption at 490 nm.
The target in assay [3] is C. jejuni flagella (Campylobacter jejuni). The assay can be described thus: apparent affinity estimated from ELISA dose response on immobilized Cj flagella.
The target is the same in assay [4]. The assay can be described thus: ELISA dose response, purified VHH on immobilized Cj flagella, rabbit anti-VHH detection.
In assay [5] the target is CmeC (Campylobacter jejuni). The assay can be described thus: ELISA on directly coated CmeC (200 ng/well), serial dilution of purified VHH, anti-FLAG + anti-mouse-HRP, OPD, absorption at 490 nm.
In assay [6] the target is CjaD (Campylobacter jejuni). As to the kind of experiment: ELISA on directly coated CjaD (200 ng/well), serial dilution of purified VHH, anti-FLAG + anti-mouse-HRP, OPD, absorption at 490 nm.
The target of assay [7] is CfrA (Campylobacter jejuni). The assay can be described thus: ELISA on directly coated CfrA (200 ng/well), serial dilution of purified VHH, anti-FLAG + anti-mouse-HRP, OPD, absorption at 490 nm.

B1: CjaD-ECD-1D3 (VHH, not shown: small tags and cut ends)
VHH: EVQLVESGGGLVQTGGSLRLSCATSGFTFEYSAIAWFRQAPGKGREGVSCISNRDGTTVYADSVKGRFTISSDNAKNTVYLQMNSLTPEDTGVYYCAADAGVYTADYCRDSRYDPVSKDAWGKGTLVTVSS
Consider B1, for which the Kd in assay [1] is 0.06 nM.

B2: CadF-ECF-1D10 (VHH, not shown: small tags and cut ends)
VHH: EVQLVESGGGLVQPGGSLRLSCAASGFTLDDYAVGWFRQAPGKEREWLSGISSRDGSTVYADSVKGRFTISRDNAKNTYYLQMNSLKPEDTAVYYCAAAVGYILTRVKSHYNDWSQGTQVTVSS
For orientation: EC50 (read off the curve) means the concentration needed to bring the measured effect to its halfway point. With B2, the EC50 (read off the curve) in assay [2] was 0.7 nM.

B3: Flagella-ECF-1G8 (VHH)
VHH: EVQLVESGGGLVEAGGSLTLSCTTSEPTSLLNLMGWWRQGPGKEREFVASSNWSGKLVDYADGVEGRFTVIRNEDENAISLQMNSLTVEDTAIYYCAASRLGLPRSAQANQYWGQGTQVTVSS
With B3, in assay [3], the Kd was 7 nM. Moreover, in assay [4], the Relative Bmax came out at 2.5.

B4: Flagella-ECF-1D9 (VHH)
VHH: EVQLVESGGGLVEPGGSLRLSCATSGFAFDNYCMYWVRQAPGKGLEWISGITNSGSFSYYADSVKGRFTISRDNAKNTLFLEMNSLTVDDTAVYYCAIHGHGCTWDSLRTTSGPRYRGQGTQVTVSS
For B4, the Kd in assay [3] was 9 nM. This molecule registered a Relative Bmax in assay [4] of 3.

B5: CmeC-ECM-1G7 (VHH)
VHH: EVQLVESGGDLVQDGGSLRLSCAASGGDFRNPVTGWYRQAPGKQRELVGLITSDGRTNYGDSVMGRFTISMDTAKNTMYLQMNSLKPEDSAVYYCAASLLYGGLQFSTNIWGQGTQVTVSS
For B5, the EC50 (read off the curve) in assay [5] was 0.3 nM.

B6: CjaD-ECD-1A7 (VHH, not shown: small tags and cut ends)
VHH: EVQLVESGGGLVQAGGSLRLSCATSGFTPGDYAIGWFRQAPGKAREGVSCLSTRDGTTYYADSVKGRFTISTDNAQNTVYLQMNSLKPEDTAVYYCAGEQISFRAVYYCTEYEPVYWSQGTQVTVSS
B6: in assay [6], the EC50 (read off the curve) was 2 nM.

B7: Flagella-ECF-1B6 (VHH)
VHH: EVQLVESGGGLVQSGGSLRLSCAASGRIFSITNMGWYRQAPGEQRELVADMPSGGSTNYADSVKGRFTISRDIAKNTVYLQMNSLKPEDTAVYYCNLKMSQPGWLVTNHNFWGQGTQVTVSS
In the case of B7, in assay [3], the Kd is 5 nM. Further, in assay [4], the Relative Bmax came to 2.5.

B8: CmeC-ECM-1D6 (VHH)
VHH: EVQLVESGGGLVQAGGSLRLSCAASGGTFSRYMMGWFRQAPGKEREFVASIARSGGTYFADSVKGRLTATRDDAKNTMHLQMNSLKPEDTAVYYCAAGAGGSYPALLDFEYLVWGQGTQVTVSS
For the molecule B8, the EC50 (read off the curve) in assay [5] was found to be 0.7 nM.

B9: CmeC-ECM-1C11 (VHH)
VHH: EVQLVESGGGLVQPGGSLRLSCAASGFTFSDQPMGWYRQAPGQGREWIAFISSGSGGTTDYKNSVKGRFTISRDNAKNIVYLQMNSLKPDDTARYYCNFRIDNNYWGQGTQVTVSS
On to B9, for which, in assay [5], the EC50 (read off the curve) was determined as 0.4 nM.

B10: Flagella-ECF-1F4 (VHH)
VHH: EVQLVESGGGLVQPGGSLRLSCEAAGSILRVNSMGWYRQAPGKQRDLVSIITSNNDAKYSDSVRGRFTISRDNAKNTVYLQMSSLKPDDTAVYYCNAYVETAGWIPTTHNLWGQGTQVTVSS
As for B10, in assay [3], the Kd is 0.6 nM. In addition, in assay [4], the Relative Bmax stood at 2.5.

B11: CadF-ECF-1F10 (VHH, not shown: small tags and cut ends)
VHH: EVQLVESGGGSVQAGGSLRLSCTASIRAGNRYAMGWFRQAPGKEREFVAGISWSGGNTYHADSVNGRFTISRDNAKNTLYLTMNSLKSEDTAVYYCAASWKPLTFRGDDYTYWGQGTQVTVSS
Consider B11, for which, in assay [2], the 50% effective concentration (EC50 (read off the curve)) was 0.4 nM.

B12: CfrA-ECA-1G7 (VHH, not shown: small tags and cut ends)
VHH: EVQLVESGGGLVQPGGSLRLSCTASGSSLDYYAIGWFRQAPGKEREGVSCISSRDGRIYWADSVEGRFTISRDNGKNTVYLQMNSLKPEDTAVYYCATSRWSFCPSDWSPVPSPFGSWGQGTQVTVSS
In the case of B12, in assay [7], the EC50 (read off the curve) worked out at 9 nM.

B13: Flagella-ECF-1C4 (VHH)
VHH: EVQLVESGGGLVQAGGSLRVSCAASGRAVHNYALNWFRQAPGKAREFVSAISWTRRTYYANSVRGRFTISRDNNGNMVHLQMSNLKSEDTALYYCAAATTWPRLDGAEYWGQGTQVTVSS
As for B13, the Kd in assay [3] is 4 nM. In assay [4], this molecule had a Relative Bmax of 3.
